Experimental data published in patent US20190257845A1, “METHOD FOR CALORIMETRIC DETERMINATION OF THE LIPOPROTEIN LIPASE ACTIVITY IN HUMAN PLASMA ENVIRONMENT” (Tallinn University of Technology, priority 2016, published 2019).

How the values were obtained:
[1] = target: T1, lipoprotein lipase (LPL) (Bos taurus, UniProt P11151); assay: ITC measurement of LPL activity in human plasma with added regulators or inhibitors; assay type: biochemical, bovine; settings: for effect on activity of LPL in plasma: LPL 0.6 nM
T1 construct: Bovine LPL was purified from milk; from tissue; host or cells: bovine milk
T1 sequence (P11151 29-478): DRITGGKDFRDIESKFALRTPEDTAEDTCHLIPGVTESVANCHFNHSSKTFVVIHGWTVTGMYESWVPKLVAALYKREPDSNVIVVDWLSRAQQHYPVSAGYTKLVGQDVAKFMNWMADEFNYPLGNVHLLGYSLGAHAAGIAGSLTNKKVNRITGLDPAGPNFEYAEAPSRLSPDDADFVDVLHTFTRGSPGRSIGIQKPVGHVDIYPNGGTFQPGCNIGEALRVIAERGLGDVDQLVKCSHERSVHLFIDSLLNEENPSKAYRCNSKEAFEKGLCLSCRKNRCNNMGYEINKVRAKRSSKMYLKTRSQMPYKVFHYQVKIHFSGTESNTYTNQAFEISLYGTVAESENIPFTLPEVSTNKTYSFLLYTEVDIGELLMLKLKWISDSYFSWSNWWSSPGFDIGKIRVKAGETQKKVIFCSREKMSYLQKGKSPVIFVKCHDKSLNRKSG
Procedure: Preparing the reagents—Bovine LPL was purified from milk (Bengtsson-Olivecrona & Olivecrona 1991) and dialysed to buffer containing 10 mM TRIS, pH 8.5 (4° C.), 4 mM sodium deoxycholate. Stock solutions of 0.5 mg/ml LPL were stored at −80° C. The N-terminal coiled-coil domain of human angiopoietin-like protein 4 (ANGPTL4), residues 26-184, was expressed in E. coli and purified as described (Robal et al. 2012). Full-length human angiopoietin-like protein 3 (ANGPTL3) expressed in Sf 21 cells was obtained from R&D Systems (USA). Apolipoprotein C-III0 was from human blood plasma (Bengtsson-Olivecrona & Sletten 1990). Apolipoprotein C-II and apolipoprotein A-V were expressed in E. coli and purified as described (Shen et al. 2010; Beckstead et al. 2003). A synthetic peptide corresponding to the N-terminal domain of human GPIHBP1, residues 23-51, was bought from Caslo (Denmark). The sequence of the peptide was as follows: […]. Antibodies (goat IgG) to human hepatic lipase were raised in a goat against hepatic lipase isolated from human post-heparin plasma (Olivecrona & Olivecrona 2000). The IgG fraction was isolated using Protein-A columns and the final preparation contained 5 mg protein per milliliter in 20 mM Na-phosphate buffer and 0.15 M NaCl (pH 7.4).
Sample preparation—Before experiments the human plasma samples were diluted 1.2 times with TRIS buffer pH 7.4 or with the additions specified for each experiment. The final concentration of TRIS was 20 mM in all cases. Stock solutions of LPL were diluted in cold 10 mM TRIS, pH 8.5, containing 4 mM sodium deoxycholate. In this buffer, LPL is stable for a long period of time, even at low protein concentrations The final concentration of deoxycholate during incubations with plasma or lipoproteins was 10 to 100 times lower than the initial. […] In experiments with post-heparin plasma, antibodies to hepatic lipase (in PBS) or the same volume of PBS only were added (180 μl of IgG or PBS was mixed with 360 μl of post-heparin plasma) and the mixture was then incubated for 2 hours on ice prior to experiments (Olivecrona & Olivecrona 2000). All samples were degassed under vacuum for 15 minutes before the ITC experiments.
(§1) ITC measurements—Most of the experiments were performed on an Nano ITC model 5300 (TA Instruments, USA) at 25° C. A MicroCal Auto-iTC200 (GE Healthcare) instrument was used for experiments regarding relationship between total heat production and released fatty acids. In a typical experiment performed by Nano ITC, the lipase substrate (plasma, Intralipid 20% or VLDL) with or without added ligands was placed into the calorimetric cell (1035 μl) and the syringe (250 μl) was filled with LPL-containing solution (bovine LPL or post-heparin plasma) (see FIG. 1A). MilliQ water was loaded into the reference cell (1032 μl). The stirring speed in the sample cell was 400 rpm. The baseline was left to stabilize for at least 1 hour before injections of LPL or post-heparin plasma. In all experiments, the first injection was 2 μl and after that single or sequential injections of 10 to 25 μl were made. The interval between the injections was from 200 s to 500 s. In experiments performed by MicroCal Auto-iTC200, 400 μl of lipase substrate (plasma), 400 μl of equilibration buffer (20 mM TRIS, pH 7,4) and a sufficient volume of LPL (0.8 μM) were placed on the loading plate. The calorimetric cell (200 μl) was rinsed with equilibration buffer and loaded with 200 μl of substrate in an automated fashion. The syringe was loaded with 40 μl of LPL-containing solution. The stirring speed in the sample cell was 600 rpm and the baseline was stabilized automatically. The first injection of LPL was 0.2 μl and the second injection was 2 μl. The experiment time was 1 hour to allow full hydrolysis of plasma triglycerides.After each experiment the Nano ITC sample cell was washed with the following solutions, one after the other: MilliQ water, 2% SDS, 40 mM NaOH and finally 95% ethanol. […]

[2] = target: T1, lipoprotein lipase (LPL); assay: ITC measurement of Intralipid hydrolysis by LPL, activation by apoC-II; assay type: biochemical, bovine; settings: Intralipid substrate
Procedure: The substrate mixture composition was as follows: 1 mg triglyceride/ml Intralipid, 10 mg/ml BSA, 10 IU/ml heparin, 0.15 M NaCl, 10 mM TRIS pH 7.4. […] Final concentration of LPL was 1.2 nM in all experiments.
Heat rate points at 200 s were obtained from FIG. 5a. The data were fitted using the following equation (Quinn et al. 1983): […]
as §1, with “[…] Raw ITC data were analysed using” for “The experiment time was 1 hour to allow full hydrolysis of plasma triglycerides.After each experiment”, “NanoAnalyze (TA Instruments) Or MicroCal Origin (GE Healthcare).” for “Nano ITC sample cell was washed with the following solutions, one after the other: MilliQ water, 2% SDS, 40 mM NaOH and finally 95% ethanol.”

In the case of `CCCCCCCCCCC[C@@H](C[C@@H]1OC(=O)[C@H]1CCCCCC)OC(=O)[C@H](CC(C)C)NC=O` [THL, tetrahydrolipstatin, reference compound], the “immediate drop of the activity of LPL” value ([1]; 10 μM THL, human plasma, LPL 1 nM, unchanged afterwards) is reported as 80% and the “THL concentration at which inhibition of LPL was detectable” value ([1]; human plasma, LPL 1 nM) is reported as 90 nM.

In the case of “QQEEEEEDEDHGPDDYDEEDEDEVEEEET [N-terminal peptide of GPIHBP1, synthetic peptide corresponding to the N-terminal domain of human GPIHBP1, residues 23-51, reference compound]”, the “protection of LPL from inactivation by ANGPTL4” value ([1]; 100 nM ANGPTL4, LPL 0.6 nM, TG 1 mM) is reported as “could not protect LPL from inactivation”.

B1: ANGPTL3: Full-length human angiopoietin-like protein 3 expressed in Sf 21 cells, from R&D Systems (protein, UniProt Q9Y5C1 1-460, looked up)
chain: MFTIKLLLFIVPLVISSRIDQDNSSFDSLSPEPKSRFAMLDDVKILANGLLQLGHGLKDFVHKTKGQINDIFQKLNIFDQSFYDLSLQTSEIKEEEKELRRTTYKLQVKNEEVKNMSLELNSKLESLLEEKILLQQKVKYLEEQLTNLIQNQPETPEHPEVTSLKTFVEKQDNSIKDLLQTVEDQYKQLNQQHSQIKEIENQLRRTSIQEPTEISLSSKPRAPRTTPFLQLNEIRNVKHDGIPAECTTIYNRGEHTSGMYAIRPSNSQVFHVYCDVISGSPWTLIQHRIDGSQNFNETWENYKYGFGRLDGEFWLGLEKIYSIVKQSNYVLRIELEDWKDNKHYIEYSFYLGNHETNYTLHLVAITGNVPNAIPENKDLVFSTWDHKAKGHFNCPEGYSGGWWWHDECGENNLNGKYNKPRAKSKPERRRGLSWKSQNGRLYSIKSTKMLIHPTDSESFE
modifications: full-length
notes: Full-length human angiopoietin-like protein 3 expressed in Sf 21 cells, from R&D Systems
For B1, the “concentration at which effect on LPL in plasma was detectable” value ([1]; human plasma) was “detectable already at nanomolar concentrations”.

B2: apoA-V: apolipoprotein A-V expressed in E. coli (protein, UniProt Q6Q788 24-366, looked up)
Apolipoprotein A-V: RKGFWDYFSQTSGDKGRVEQIHQQKMAREPATLKDSLEQDLNNMNKFLEKLRPLSGSEAPRLPQDPVGMRRQLQEELEEVKARLQPYMAEAHELVGWNLEGLRQQLKPYTMDLMEQVALRVQELQEQLRVVGEDTKAQLLGGVDEAWALLQGLQSRVVHHTGRFKELFHPYAESLVSGIGRHVQELHRSVAPHAPASPARLSRCVQVLSRKLTLKAKALHARIQQNLDQLREELSRAFAGTGTEEGAGPDPQMLSEEVRQRLQAFRQDTYLQIAAFTRAIDQETEEVQQQLAPPPPGHSAFAPEFQQTDSGKVLSKLQARLDDLWEDITHSLHDQGHSHLGDP
B2 was tested, and the “effect on activity of LPL in plasma” value ([1]; 10 nM apoA-V, TG 1 mM) was “did not change the activity of LPL” and the “effect on activity of LPL in plasma” value ([1]; 100 nM apoA-V, TG 1 mM) was “some inhibition was observed”.

B3: apoC-II: Apolipoprotein C-II expressed in E. coli; activator of LPL (protein, UniProt P02655 29-101, looked up)
Apolipoprotein C-II: DEMPSPTFLTQVKESLSSYWESAKTAAQNLYEKTYLPAVDEKLRDLYSKSTAAMSTYTGIFTDQVLSVLKGEE
With B3 the “estimated maximal activation factor of LPL” value ([2]; 1.2 nM LPL, apoC-II 0 to 1000 nM, heat rate at 200 s, model of Quinn et al. 1983) was 4.2±1.2, the Kd ([2]; 1.2 nM LPL, heat rate at 200 s, model of Quinn et al. 1983, read-out: Kd value (affinity of apoC-II for LPL)) was 0.022 ± 0.008 µM and the “effect on stability of LPL” value ([2]; LPL not stable without apoC-II or below 100 nM) was “stabilized LPL”.
